Assay [1] deals with E2CTD, C-terminal toxin domain of the GA1 T6SS effector E2 from Parabacteroides sp. D25 (Parabacteroides sp. D25). In words: SEC-MALS; co-purified E2CTD-I2 complex at 2 mg/ml, Superdex 200 Increase 10/300, MiniDAWN detector and Optilab. (In general: SEC sorts molecules by how far they enter the pores of the column.)
Assay [2] has the same target. In words: ITC. The following applies: natural protein.

A word on the stoichiometry N: it is the number of molecules, sites or subunits per partner or assembly. “cognate I2 immunity protein from Parabacteroides sp. D25, untagged, co-expressed with E2CTD (natural protein)” had a stoichiometry N in assay [1] of 1. By Kd is commonly meant the constant that tells how readily two partners part at equilibrium. In assay [2], “cognate I2 immunity protein from Parabacteroides sp. D25, expressed and purified alone” registered a Kd of 27 nM. In turn, “I2^PV, divergent cognate I2 protein from P. vulgatus AF31-3” came in with a Kd in assay [2] of 5.2 nM. On the same count and under the same terms, the value for “I2^BU, divergent cognate I2 protein from B. uniformis 82G1” was 18 nM.

(Values after doi:10.1101/2025.05.03.651265.)
